This experiment deals with acetylcholine receptor. Description: SPR, acetylcholine receptor on CM5 chip, peptide 10 µM. A general note: In SPR one partner is held on a chip, and binding of the other changes the refractive index at the surface.

B1: 6mer-2-568 (peptide)
peptide: KGFQKK
Turning to B1, the Binding affinity (RU) worked out at 142 RU.

B2: 6mer-2-569 (peptide)
peptide: RWQLRK
For the molecule B2, the Binding affinity (RU) came out at 135 RU.

B3: 6mer-2-565 (peptide)
peptide: KSRRRR
As to B3, the Binding affinity (RU) came to 147 RU.

B4: 6mer-2-589 (peptide)
peptide: RWQQRK
Consider B4, for which the Binding affinity (RU) amounted to 153 RU.

B5: 6mer-2-579 (peptide)
peptide: RWQYRK
B5 showed a Binding affinity (RU) of 135 RU.

B6: 6mer-2-562 (peptide)
peptide: RQQRKR
The molecule B6 came in with a Binding affinity (RU) of 136 RU.

B7: 6mer-2-584 (peptide)
peptide: KRLTRK
B7 had a Binding affinity (RU) of 148 RU.

B8: 6mer-2-582 (peptide)
peptide: RWQTRK
Consider B8, for which the Binding affinity (RU) came out at 148 RU.

B9: 6mer-2-588 (peptide)
peptide: KWFYKK
B9 returned a Binding affinity (RU) of 149 RU.

B10: 6mer-2-573 (peptide)
peptide: KLYLRR
With B10, the Binding affinity (RU) turned out to be 121 RU.

B11: 6mer-2-567 (peptide)
peptide: KLYYRK
Molecule B11 displayed a Binding affinity (RU) of 146 RU.

B12: 6mer-2-563 (peptide)
peptide: KGYQKR
For B12, the Binding affinity (RU) came to 131 RU.

B13: 6mer-2-580 (peptide)
peptide: KWQQRR
B13 gave a Binding affinity (RU) of 121 RU.

B14: 6mer-2-583 (peptide)
peptide: KSVTKK
B14 returned a Binding affinity (RU) of 154 RU.

B15: 6mer-2-570 (peptide)
peptide: RVYYKR
For B15, the Binding affinity (RU) was found to be 148 RU.

B16: 6mer-2-564 (peptide)
peptide: KQVYRK
B16 came in with a Binding affinity (RU) of 148 RU.

B17: 6mer-2-578 (peptide)
peptide: RSVLRK
The molecule B17 had a Binding affinity (RU) of 135 RU.

B18: 6mer-2-587 (peptide)
peptide: KRISKR
Molecule B18 returned a Binding affinity (RU) of 148 RU.

B19: 6mer-2-574 (peptide)
peptide: KGVYRK
The molecule B19 had a Binding affinity (RU) of 153 RU.

B20: 6mer-2-581 (peptide)
peptide: RVQQKR
B20: the Binding affinity (RU) came out at 139 RU.

B21: 6mer-2-576 (peptide)
peptide: KGVSRR
Regarding B21, the Binding affinity (RU) came to 139 RU.

B22: 6mer-2-575 (peptide)
peptide: RGYSRK
In turn, B22 came in with a Binding affinity (RU) of 139 RU.

B23: 6mer-2-585 (peptide)
peptide: RSFRRK
Take B23: the Binding affinity (RU) is 136 RU.

B24: 6mer-2-586 (peptide)
peptide: RWLSRK
B24 came in with a Binding affinity (RU) of 121 RU.

B25: 6mer-2-571 (peptide)
peptide: RGYQRR
B25 had a Binding affinity (RU) of 135 RU.

B26: 6mer-2-566 (peptide)
peptide: KRLSKK
For B26, the Binding affinity (RU) came to 139 RU.

B27: 6mer-2-577 (peptide)
peptide: KRVQRR
Molecule B27 came in with a Binding affinity (RU) of 139 RU.

B28: 6mer-2-572 (peptide)
peptide: KSQRRK
The molecule B28 registered a Binding affinity (RU) of 148 RU.

For the origin of these results see US20250011363A1, “OPTIMIZED SHORTENED PEPTIDE THAT BINDS TO ACETYLCHOLINE RECEPTOR, AND USE THEREOF” (SKINMED CO., LTD., priority 2021, published 2025).
